Assay results taken from patent US7410774B1, “Compounds modulating sister chromatid separation and method for identifying same” (Boehringer Ingelheim International GmbH, priority 1999, dated 2008).

Molecular target: T1, Esp1 (Saccharomyces cerevisiae, UniProt Q03018)
T1 construct: made in house; host or cells: S. cerevisiae W303 derivative overexpressing Esp1p from the GAL1-10 promoter; soluble cell extract, not purified
Assay: In vitro assay for yeast Esp1p activity (Esp1-dependent Scc1p cleavage)
Type: biochemical
Conditions: yeast chromatin incubated with extract over-producing Esp1; Western blot
Protocol: A crude Triton X-100 insoluble chromatin preparation was obtained from yeast cells as described (Liang and Stillman, 1997). The pelleted chromatin was resuspended in yeast cell extracts that had been prepared similar to the supernatant fraction of the chromatin preparation. One tenth volume of an ATP regenerating system was added (50 mM HEPES/KOH pH-7.5, 100 mM KCl, 10 mM MgCl2, 10 mM ATP, 600 mM creatin phosphate, 1.5 mg/ml phophocreatin kinase, 1 mM DTT, 10% glycerol). Reactions were incubated for 10 min at 25° C. with shaking and stopped on ice. The chromatin fraction was separated again from the supernatant by centrifugation, and resuspended in buffer EBX (Liang and Stillman, 1997). Equivalent aliquots of supernatant and chromatin pellet were analysed by SDS-PAGE and Western blotting. Scc1-HA was detected with the anti-HA monoclonal antibody 16B12 (Boehringer Mannheim). […]
Chromatin was prepared from a strain containing Scc1p tagged with HA epitopes that was arrested in metaphase with nocodazol. The proteins in the chromatin preparation were resolved by SDS-PAGE and Scc1-HA was detected by western blotting (FIG. 2, lane 1). […] Aliquots of the supernatant fraction and the chromatin fraction of each reaction were analysed.

T1 sequence (Q03018 whole entry): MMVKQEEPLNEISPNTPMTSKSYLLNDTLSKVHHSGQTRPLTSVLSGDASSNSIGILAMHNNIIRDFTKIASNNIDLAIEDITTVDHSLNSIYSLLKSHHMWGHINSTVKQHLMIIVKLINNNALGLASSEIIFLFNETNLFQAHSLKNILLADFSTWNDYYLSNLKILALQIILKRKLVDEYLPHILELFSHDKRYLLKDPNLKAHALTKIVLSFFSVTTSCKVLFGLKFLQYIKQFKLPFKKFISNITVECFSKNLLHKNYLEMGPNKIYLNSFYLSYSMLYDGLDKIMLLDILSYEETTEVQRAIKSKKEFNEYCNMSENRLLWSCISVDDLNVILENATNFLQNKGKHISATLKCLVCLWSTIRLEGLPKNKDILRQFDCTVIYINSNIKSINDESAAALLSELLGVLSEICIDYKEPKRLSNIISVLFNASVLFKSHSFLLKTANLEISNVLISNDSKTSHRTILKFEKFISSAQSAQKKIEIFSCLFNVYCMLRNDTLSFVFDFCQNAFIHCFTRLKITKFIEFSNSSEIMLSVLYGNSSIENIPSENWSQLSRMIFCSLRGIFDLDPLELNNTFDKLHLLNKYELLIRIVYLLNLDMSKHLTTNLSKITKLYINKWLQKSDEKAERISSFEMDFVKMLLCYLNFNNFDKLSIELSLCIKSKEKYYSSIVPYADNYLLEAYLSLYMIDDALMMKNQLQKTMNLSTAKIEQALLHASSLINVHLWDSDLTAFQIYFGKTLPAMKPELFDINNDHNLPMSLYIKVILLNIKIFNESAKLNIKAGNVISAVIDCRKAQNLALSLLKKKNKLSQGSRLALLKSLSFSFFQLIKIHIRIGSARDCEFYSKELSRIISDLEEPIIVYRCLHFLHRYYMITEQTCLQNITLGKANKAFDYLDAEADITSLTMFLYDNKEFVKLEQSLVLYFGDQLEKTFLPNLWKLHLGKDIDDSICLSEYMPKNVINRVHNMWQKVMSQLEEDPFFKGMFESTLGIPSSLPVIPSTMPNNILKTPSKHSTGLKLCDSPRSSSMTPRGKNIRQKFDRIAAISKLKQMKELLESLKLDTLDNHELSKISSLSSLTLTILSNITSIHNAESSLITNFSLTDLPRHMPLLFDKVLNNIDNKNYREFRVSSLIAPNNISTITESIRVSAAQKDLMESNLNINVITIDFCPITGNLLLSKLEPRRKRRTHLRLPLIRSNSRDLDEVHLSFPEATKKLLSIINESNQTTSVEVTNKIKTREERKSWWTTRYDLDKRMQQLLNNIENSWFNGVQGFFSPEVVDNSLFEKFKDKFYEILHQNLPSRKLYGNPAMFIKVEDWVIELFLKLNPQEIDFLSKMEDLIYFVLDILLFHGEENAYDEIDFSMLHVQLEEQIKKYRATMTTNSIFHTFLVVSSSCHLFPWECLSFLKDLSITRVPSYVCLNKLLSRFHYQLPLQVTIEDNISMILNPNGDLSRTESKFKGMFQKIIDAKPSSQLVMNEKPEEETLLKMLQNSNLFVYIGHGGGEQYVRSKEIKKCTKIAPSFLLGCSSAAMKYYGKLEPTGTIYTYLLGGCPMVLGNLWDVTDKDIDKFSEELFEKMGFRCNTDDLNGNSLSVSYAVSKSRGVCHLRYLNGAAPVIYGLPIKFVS

B1: Pds1: yeast inhibitory protein binding Esp1; in vitro translated in reticulocyte lysate (protein)
chain: MMPANEDKENNIVYTGNESSGINFPQTPAHLLKRSHSNILKPPVRLDQLKRDANSNNGNTLKYIQGGKEVSPTKRLHTHAQQQGRLPLAAKDNNRSKSFIFPETSNQSKDADLPQLQNTLSIRKNDQLRKLSQISRSRSRANHNDLLSNSRKLQKYGSVLGYNALPKMKSLVLKDLADSGKNEESSDDDEGNEDSESKLGKKLQSALLKQDSSDGENELNGGLGLFNEQGGLQQLIKNSTKNEQKTKNDKSDKTDDYDIEIAPQRQEPLPYVPEGYSPFQQDDIEKLKTFNSPYKLDLEDEDDTPDKVDLLPLEQIDEEGEKDETECITRNQEEGAALPLLSKNFKEVAAVPTMELVYSEEGLDPEELEDLVT
  Esp1-dependent in vitro cleavage of Scc1p: inhibited
